Test results published in patent publication US6660836.

Key:
[1] = target: Gαq-glutathione S-transferase fusion protein; assay: hydroxyl radical alkyl 1H/2H exchange footprinting normalised to internal reference 2,4-DNP-Leu; 30 µM GST-Gaq/15.6 µM CTP, 400 µM OH radical
[2] = target: Gαq-glutathione S-transferase fusion protein; assay: hydroxyl radical alkyl 1H/2H exchange footprinting normalised to internal reference 2,4-DNP-Leu; 50 µM GST-Gaq/100 µM CTP, 200 µM OH radical
[3] = target: Gαq-glutathione S-transferase fusion protein; assay: hydroxyl radical alkyl 1H/2H exchange footprinting, LC-MS of DNS-amino acids; 30 µM GST-Gaq/15.6 µM CTP, 400 µM OH radical
[4] = target: Gαq-glutathione S-transferase fusion protein; assay: hydroxyl radical alkyl 1H/2H exchange footprinting normalised to internal reference 2,4-DNP-Leu; 50 µM GST-Gaq/100 µM CTP, 400 µM OH radical
[5] = target: Gαq-glutathione S-transferase fusion protein; assay: hydroxyl radical alkyl 1H/2H exchange footprinting, LC-MS of DNS-amino acids; 50 µM GST-Gaq/100 µM CTP, 400 µM OH radical
[6] = target: Gαq-glutathione S-transferase fusion protein; assay: hydroxyl radical alkyl 1H/2H exchange footprinting, LC-MS of DNS-amino acids; 50 µM GST-Gaq/100 µM CTP, 200 µM OH radical

- Protection Factor (residue Ala) [1]: 0.24
- Protection Factor (residue Asp) [1]: 0.16
- Protection Factor (residue Glu) [1]: 0.37
- Protection Factor (residue Gly) [1]: 0.3
- Protection Factor (residue Ile) [1]: 0.41
- Protection Factor (residue Leu) [1]: 0.39
- Protection Factor (residue Lys) [1]: 0.39
- Protection Factor (residue Ser) [1]: -0.35
- Protection Factor (residue Val) [1]: 0.38
- Protection Factor (residue Ala) [2]: 2
- Protection Factor (residue Asp) [2]: -0.77
- Protection Factor (residue Glu) [2]: 0.51
- Protection Factor (residue Gly) [2]: 0.32
- Protection Factor (residue Ile) [2]: 0.62
- Protection Factor (residue Leu) [2]: 0.59
- Protection Factor (residue Lys) [2]: 0.58
- Protection Factor (residue Ser) [2]: 0
- Protection Factor (residue Val) [2]: 0.61
- Δ Isotope Ratio free/Δ Isotope Ratio bound (residue Ala) [3]: 0.8
- Δ Isotope Ratio free/Δ Isotope Ratio bound (residue Asp) [3]: 0.53
- Δ Isotope Ratio free/Δ Isotope Ratio bound (residue Glu) [3]: 1.2
- Δ Isotope Ratio free/Δ Isotope Ratio bound (residue Gly) [3]: 0.99
- Δ Isotope Ratio free/Δ Isotope Ratio bound (residue Ile) [3]: 1.4
- Δ Isotope Ratio free/Δ Isotope Ratio bound (residue Leu) [3]: 1.3
- Δ Isotope Ratio free/Δ Isotope Ratio bound (residue Lys, diDNS-Lys derivative) [3]: 1.3
- Δ Isotope Ratio free/Δ Isotope Ratio bound (residue Ser) [3]: -1.2
- Δ Isotope Ratio free/Δ Isotope Ratio bound (residue Val) [3]: 1.3
- Protection Factor (residue Ala) [4]: 7.2
- Protection Factor (residue Asp) [4]: -1.5
- Protection Factor (residue Glu) [4]: 6.3
- Protection Factor (residue Gly) [4]: 0
- Protection Factor (residue Ile) [4]: 2.2
- Protection Factor (residue Leu) [4]: 2.4
- Protection Factor (residue Lys) [4]: 2.3
- Protection Factor (residue Ser) [4]: 0
- Protection Factor (residue Val) [4]: 2
- Δ Isotope Ratio free/Δ Isotope Ratio bound (residue Ala) [5]: 6.3
- Δ Isotope Ratio free/Δ Isotope Ratio bound (residue Asp) [5]: -2.5
- Δ Isotope Ratio free/Δ Isotope Ratio bound (residue Glu) [5]: 6.5
- Δ Isotope Ratio free/Δ Isotope Ratio bound (residue Gly) [5]: 0.5
- Δ Isotope Ratio free/Δ Isotope Ratio bound (residue Ile) [5]: 2.9
- Δ Isotope Ratio free/Δ Isotope Ratio bound (residue Leu) [5]: 3.1
- Δ Isotope Ratio free/Δ Isotope Ratio bound (residue Lys, diDNS-Lys derivative) [5]: 3.1
- Δ Isotope Ratio free/Δ Isotope Ratio bound (residue Ser) [5]: 0
- Δ Isotope Ratio free/Δ Isotope Ratio bound (residue Val) [5]: 2.7
- Δ Isotope Ratio free/Δ Isotope Ratio bound (residue Ala) [6]: 4.5
- Δ Isotope Ratio free/Δ Isotope Ratio bound (residue Asp) [6]: -2
- Δ Isotope Ratio free/Δ Isotope Ratio bound (residue Glu) [6]: 1.8
- Δ Isotope Ratio free/Δ Isotope Ratio bound (residue Gly) [6]: 1.2
- Δ Isotope Ratio free/Δ Isotope Ratio bound (residue Ile) [6]: 2.5
- Δ Isotope Ratio free/Δ Isotope Ratio bound (residue Leu) [6]: 2.3
- Δ Isotope Ratio free/Δ Isotope Ratio bound (residue Lys, diDNS-Lys derivative) [6]: 2.4
- Δ Isotope Ratio free/Δ Isotope Ratio bound (residue Ser) [6]: 0
- Δ Isotope Ratio free/Δ Isotope Ratio bound (residue Val) [6]: 2.4
Binder: SNEQKACKVLGI [C-terminal peptide (…) of the third intracellular loop of the 5-hydroxytryptamine2A receptor]
